Tests used:
[1] = target: full-length wild type S. aureus SPase (His6x-tagged SpsB) (Staphylococcus aureus); test: steady-state increase of arylomycin fluorescence (ex 320 nm, em 410 nm) on binding full-length wild type S. aureus SPase
[2] = target: full-length wild type S. aureus SPase (His6x-tagged SpsB) (Staphylococcus aureus); test: steady-state binding by increase of arylomycin fluorescence; full-length His-tagged S. aureus SPase, buffer with 10% glycerol
[3] = target: full-length P29S mutant of S. aureus SPase (His6x-tagged SpsB(P29S)) (Staphylococcus aureus); test: as above
[4] = target: full-length P29S mutant of S. aureus SPase (His6x-tagged SpsB(P29S)) (Staphylococcus aureus); test: steady-state increase of arylomycin fluorescence (ex 320 nm, em 410 nm) on binding full-length S. aureus SPase P29S
[5] = target: P84S variant of the truncated E. coli SPase (Δ2-75) (Escherichia coli) (UniProt P00803); test: steady-state increase of arylomycin fluorescence (ex 320 nm, em 410 nm) on binding the soluble N-terminally truncated (delta 2-75) E. coli SPase P84S
[6] = target: P84S variant of the truncated E. coli SPase (Δ2-75) (Escherichia coli) (UniProt P00803); test: steady-state binding by increase of arylomycin fluorescence (ex 320 nm, em 410 nm); truncated SPase in n-octyl-β-glucopyranoside micelles

## arylomycin C16 (peptide)
[1]
  EC50 (read off the curve): 2000 nM
[2]
  Kd: 1280 nM
[3]
  Kd: 130 nM
[4]
  EC50 (read off the curve): 200 nM
[5]
  EC50 (read off the curve): 90 nM
[6]
  Kd: 39 nM
